Test results reported in PMC10368747, “Zinc-finger BED domains drive the formation of the active Hermes transpososome by asymmetric DNA binding”.
“And” between values parts separate entries of the source, which are not always exact repeats. Equal values may be shown once. One block for each molecule: values may come before it.

Assays:
[1] = target: full-length Hermes transposase (with the mutations Q2E and K128G) (Musca domestica) (UniProt Q25442); assay: mass photometry; Hermes (10 µM) mixed with 2.5, 5 or 10 µM left-end DNAs, dialysed to 150 mM NaCl, 25 mM HEPES.Na pH 7.5, 0.3 mM TCEP, diluted 50 and 100 times; composition by subtracting the mass of the hexamer or octamer
[2] = target: full-length Hermes transposase (with the mutations Q2E and K128G) (Musca domestica) (UniProt Q25442); assay: cryo-EM structure; LE-LE transpososome: Hermes with 8 + LE-TIR + 30 DNA, 8:2 protein-to-DNA, 150 mM NaCl, 25 mM HEPES.Na pH 7.5, purified by SEC
[3] = target: full-length Hermes transposase (with the mutations Q2E and K128G) (Musca domestica) (UniProt Q25442); assay: cryo-EM structure; RE-RE transpososome: Hermes with 8 + RE-TIR + 30 DNA, 8:2 protein-to-DNA, 150 mM NaCl, 25 mM HEPES.Na pH 7.5, purified by SEC
[4] = target: full-length Hermes transposase (with the mutations Q2E and K128G) (Musca domestica) (UniProt Q25442); assay: cryo-EM structure; LE-LE transpososome: Hermes with 8 + LE-TIR + 30 DNA, 8:2 protein-to-DNA, 150 mM NaCl, 25 mM HEPES.Na pH 7.5, purified by SEC; remark: listed apart in the source
[5] = target: full-length Hermes transposase (with the mutations Q2E and K128G) (Musca domestica) (UniProt Q25442); assay: SEC + other: mass photometry; purified Hermes transposase alone, dialysed against 25 mM HEPES.Na pH 7.5, 0.3 mM TCEP with 0.5, 0.25 or 0.15 M NaCl; Superose 6 SEC; mass photometry at 50, 65 and 30 nM; higher salt favours the octamer, lower salt the hexamer
[6] = target: T1, Hermes BED domain (Musca domestica, UniProt Q25442 1-78); assay: EMSA; one BED per DNA; Kd in Fig. 6c is 1.7 or 2.8 uM, assignment not resolvable from text; BED EMSA: 25 mM HEPES.Na pH 7.5, 150 mM NaCl, 0.3 mM TCEP, 1 uM DNA, 0.5 uM ran17, 0-10 uM BED, 1 h 4 C then 15 min RT; 15% PAGE 0.5X TBE; Hermes SEC at 150 mM; settings: protein: recombinant; tags: untagged; label: 5'-6FAM top strand (EMSA); blunt
T1 sequence: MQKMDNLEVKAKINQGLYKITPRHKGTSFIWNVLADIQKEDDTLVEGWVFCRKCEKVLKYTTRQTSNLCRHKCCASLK

[7] = target: T1, Hermes BED domain; assay: EMSA; two BED per DNA, cooperative; 0.5 uM ran17 competitor; value assigned by the peer review file; BED EMSA: 25 mM HEPES.Na pH 7.5, 150 mM NaCl, 0.3 mM TCEP, 1 uM DNA, 0.5 uM ran17, 0-10 uM BED, 1 h 4 C then 15 min RT; 15% PAGE 0.5X TBE; Hermes SEC at 150 mM; settings: protein: recombinant; tags: untagged; label: 5'-6FAM top strand (EMSA, 10% of the DNA); blunt

stoichiometry N [1]: 6 and 8
stoichiometry N [2]: 8
stoichiometry N [3]: 8
stoichiometry N [4]: 6
stoichiometry N [5]: 6 monomers and 8 monomers
Molecule: full-length Hermes transposase (with the mutations Q2E and K128G) (from UniProt Q25442 1-612) (enzyme)

B1: LE11-27mut (dsDNA)
DNA 1: CAACAAGTGTTTTATTT
DNA 2: AAATAAAACACTTGTTG
binding result [6]: binds

B2: LE11-27 (dsDNA)
DNA 1: CAACAAGTGGCTTATTT
DNA 2: AAATAAGCCACTTGTTG
Kd [7]: 2500 ± 200 nM
